In US20140274782A1, “AFFINITY REAGENTS AND METHODS FOR DETECTION, PURIFICATION, AND PROTEOMIC ANALYSIS OF METHYLATED PROTEINS” (The Board of Trustees of the Leland Stanford Junior …, priority 2013, published 2014):

Assays:
[1] = system: 3×MBT domain of L3MBTL1; test: Triple SILAC pull-down, 3xMBT/3xMBTD355N ratio (cytoplasmic, nuclear and chromatin fractions of 293T cells); format: binding, human; conditions: for Protein Ratios 3xMBT/D355N: pull-down by 3xMBT vs 3xMBTD355N; for 3xMBT/D355N UNC Heavy: experiment with UNC0638 in heavy SILAC media; for 3xMBT/D355N UNC Light: experiment with UNC0638 in light SILAC media;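 for all read-outs here: proteins quantified with MaxQuant, requiring at least two unique peptides and quantification in both label directions, normalized to the mean of proteins from a digested loading control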
[2] = molecular target: T1, G9a and GLP (Homo sapiens, UniProt Q96KQ7+Q9H9B1); test: Triple SILAC pull-down after UNC0638 treatment of 293T cells, DMSO/UNC0638 ratio of protein captured by 3×MBT; format: cell-based; conditions: for Protein Ratios DMSO/UNC0638: SILAC ratio of protein captured by 3xMBT, 293T cells treated 24 hours with UNC0638 at 2.5 μM or DMSO; for Relative to UNC0638 UNC Heavy: UNC0638 in heavy SILAC media; for Relative to UNC0638 UNC Light: UNC0638 in light SILAC media; for Relative to UNC0638 Average: average of UNC Light and UNC Heavy experiments; for Candidate G9a/GLP target: reduced association with 3xMBT after UNC0638 treatment;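 for all read-outs here: mass spectrometry (Q-Exactive) SILAC quantitation, DMSO/UNC0638 ratio computed after subtracting 3×MBTD355N mutant pull-down background, only proteins with at least twofold 3×MBT over mutant signal considered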
T1 construct: endogenous in cells; host or cells: HEK 293T
T1 sequence (Q96KQ7 2-1210 limits assumed): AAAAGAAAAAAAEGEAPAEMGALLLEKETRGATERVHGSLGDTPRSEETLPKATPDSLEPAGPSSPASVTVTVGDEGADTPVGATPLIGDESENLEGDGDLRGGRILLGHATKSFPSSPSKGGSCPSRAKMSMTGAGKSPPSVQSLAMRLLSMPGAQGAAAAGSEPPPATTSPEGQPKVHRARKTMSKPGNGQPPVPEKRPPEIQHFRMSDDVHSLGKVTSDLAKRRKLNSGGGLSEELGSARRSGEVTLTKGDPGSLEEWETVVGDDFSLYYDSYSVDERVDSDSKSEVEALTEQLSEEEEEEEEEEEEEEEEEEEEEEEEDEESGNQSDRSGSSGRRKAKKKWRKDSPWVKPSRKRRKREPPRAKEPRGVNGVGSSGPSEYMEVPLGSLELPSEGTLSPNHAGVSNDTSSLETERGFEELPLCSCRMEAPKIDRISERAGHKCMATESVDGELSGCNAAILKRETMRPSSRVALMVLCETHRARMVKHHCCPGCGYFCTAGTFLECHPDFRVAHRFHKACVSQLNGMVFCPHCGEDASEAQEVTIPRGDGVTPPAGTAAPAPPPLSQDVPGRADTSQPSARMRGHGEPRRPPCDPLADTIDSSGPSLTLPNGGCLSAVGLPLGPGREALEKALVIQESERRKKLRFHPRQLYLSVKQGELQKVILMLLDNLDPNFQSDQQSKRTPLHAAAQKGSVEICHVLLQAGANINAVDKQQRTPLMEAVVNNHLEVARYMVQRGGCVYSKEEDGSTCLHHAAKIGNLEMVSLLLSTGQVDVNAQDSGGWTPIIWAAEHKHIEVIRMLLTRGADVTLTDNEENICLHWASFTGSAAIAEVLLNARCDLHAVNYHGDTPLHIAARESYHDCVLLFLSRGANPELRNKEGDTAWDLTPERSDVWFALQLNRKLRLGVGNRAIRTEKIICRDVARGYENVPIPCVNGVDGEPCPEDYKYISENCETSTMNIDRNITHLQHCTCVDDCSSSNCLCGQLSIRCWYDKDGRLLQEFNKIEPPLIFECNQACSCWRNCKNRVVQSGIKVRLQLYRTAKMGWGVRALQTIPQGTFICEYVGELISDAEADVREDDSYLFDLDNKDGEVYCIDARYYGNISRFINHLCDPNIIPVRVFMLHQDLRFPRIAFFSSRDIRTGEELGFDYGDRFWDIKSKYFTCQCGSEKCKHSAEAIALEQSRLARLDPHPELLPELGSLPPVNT
T1 sequence (Q9H9B1 2-1298 limits assumed): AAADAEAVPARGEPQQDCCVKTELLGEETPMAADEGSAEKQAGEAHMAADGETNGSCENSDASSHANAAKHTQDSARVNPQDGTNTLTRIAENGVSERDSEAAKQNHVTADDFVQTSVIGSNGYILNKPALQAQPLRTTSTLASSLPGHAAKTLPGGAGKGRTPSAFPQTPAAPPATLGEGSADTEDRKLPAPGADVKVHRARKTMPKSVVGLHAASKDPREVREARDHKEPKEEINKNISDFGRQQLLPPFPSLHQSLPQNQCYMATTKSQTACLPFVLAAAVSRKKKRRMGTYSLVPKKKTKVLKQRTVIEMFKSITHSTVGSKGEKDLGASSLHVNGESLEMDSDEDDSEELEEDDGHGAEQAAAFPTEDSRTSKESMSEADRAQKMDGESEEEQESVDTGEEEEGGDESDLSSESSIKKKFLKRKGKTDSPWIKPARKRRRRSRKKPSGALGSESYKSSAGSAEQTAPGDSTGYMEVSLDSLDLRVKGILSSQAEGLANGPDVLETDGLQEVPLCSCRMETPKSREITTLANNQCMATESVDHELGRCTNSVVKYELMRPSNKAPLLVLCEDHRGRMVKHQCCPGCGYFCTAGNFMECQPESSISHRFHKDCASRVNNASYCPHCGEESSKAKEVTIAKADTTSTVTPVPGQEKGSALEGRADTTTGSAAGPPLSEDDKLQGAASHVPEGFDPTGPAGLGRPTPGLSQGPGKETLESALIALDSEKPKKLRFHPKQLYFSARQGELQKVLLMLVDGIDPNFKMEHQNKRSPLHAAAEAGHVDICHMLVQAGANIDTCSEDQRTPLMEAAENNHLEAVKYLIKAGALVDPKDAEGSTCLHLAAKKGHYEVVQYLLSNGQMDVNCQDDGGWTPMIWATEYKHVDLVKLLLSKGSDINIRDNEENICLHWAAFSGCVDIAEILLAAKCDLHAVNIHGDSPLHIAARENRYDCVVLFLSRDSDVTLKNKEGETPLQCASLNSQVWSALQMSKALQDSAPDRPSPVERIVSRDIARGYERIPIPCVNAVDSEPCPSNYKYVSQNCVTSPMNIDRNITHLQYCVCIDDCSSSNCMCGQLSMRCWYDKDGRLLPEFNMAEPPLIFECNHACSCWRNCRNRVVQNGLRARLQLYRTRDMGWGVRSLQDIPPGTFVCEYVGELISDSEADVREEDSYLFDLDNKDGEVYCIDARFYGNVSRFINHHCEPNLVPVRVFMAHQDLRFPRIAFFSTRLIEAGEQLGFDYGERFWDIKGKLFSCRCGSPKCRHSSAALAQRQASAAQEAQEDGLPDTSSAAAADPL

[3] = SILAC ratio 3xMBT vs 3xMBTD355N pull-down, 293T cells, all values in log base 2
[4] = SILAC ratio DMSO relative to UNC0638, pull-down with 3xMBT, all values in log base 2
[5] = SILAC ratio, pull-down 3xMBT vs 3xMBTD355N
[6] = SILAC ratio DMSO/UNC0638 of protein pulled down with 3xMBT

Substance | Relative to UNC0638 UNC Heavy [2, 6] [log base 2] | Relative to UNC0638 UNC Light [2, 6] [log base 2] | Relative to UNC0638 Average [2] [log base 2] | 3xMBT/D355N UNC Heavy [1, 5] [log base 2] | 3xMBT/D355N UNC Light [1, 5] [log base 2] | further results
60S ribosomal protein L5 | – | – | – | – | – | Protein Ratios 3xMBT/D355N ([1]; SILAC ratio, 293T cells): 2.3; Protein Ratios DMSO/UNC0638 [2]: 1.4
ABCF1 | – | – | – | – | – | 3xMBT/D355N UNC Heavy [1, 3]: 2.36 log base 2; 3xMBT/D355N UNC Light [1, 3]: 2.94 log base 2; Relative to UNC0638 UNC Heavy [2, 4]: 0.22 log base 2; Relative to UNC0638 UNC Light [2, 4]: −0.04 log base 2; Relative to UNC0638 Average ([2]; all values in log base 2): 0.09 log base 2
ANXA2 | – | – | – | – | – | 3xMBT/D355N UNC Heavy [1, 3]: 2.86 log base 2; 3xMBT/D355N UNC Light [1, 3]: 2.78 log base 2; Relative to UNC0638 UNC Heavy [2, 4]: 0.38 log base 2; Relative to UNC0638 UNC Light [2, 4]: −0.31 log base 2; Relative to UNC0638 Average ([2]; all values in log base 2): 0.04 log base 2
ATP-dependent DNA helicase Q1 | – | – | – | – | – | Protein Ratios 3xMBT/D355N ([1]; SILAC ratio, 293T cells): 18.8; Protein Ratios DMSO/UNC0638 [2]: 1.4
BUB3 | 0.15 | 0.14 | 0.15 | 2.75 | 3.26 | –
CAMK2D | 0.26 | 0.27 | 0.27 | 1.96 | 2.82 | –
CD3EAP | – | – | – | – | – | 3xMBT/D355N UNC Heavy [1, 3]: 2.30 log base 2; 3xMBT/D355N UNC Light [1, 3]: 1.86 log base 2; Relative to UNC0638 UNC Heavy [2, 4]: −0.02 log base 2; Relative to UNC0638 UNC Light [2, 4]: 0.01 log base 2; Relative to UNC0638 Average ([2]; all values in log base 2): 0.00 log base 2
CHD4 | 0.34 | 0.14 | 0.24 | 2.24 | 3.63 | –
CORO1C | 0.07 | 0.26 | 0.17 | 2.83 | 3.30 | –
CSNK2B | – | – | – | – | – | 3xMBT/D355N UNC Heavy [1, 3]: 2.83 log base 2; 3xMBT/D355N UNC Light [1, 3]: 2.65 log base 2; Relative to UNC0638 UNC Heavy [2, 4]: 0.21 log base 2; Relative to UNC0638 UNC Light [2, 4]: −0.01 log base 2; Relative to UNC0638 Average ([2]; all values in log base 2): 0.10 log base 2
CTBP2 | 0.50 | 0.15 | 0.32 | 1.97 | 1.74 | –
Clathrin heavy chain 1 | – | – | – | – | – | Protein Ratios 3xMBT/D355N ([1]; SILAC ratio, 293T cells): 6.0; Protein Ratios DMSO/UNC0638 [2]: 1.4
DDX6 | 0.14 | 0.22 | 0.18 | 3.18 | 3.05 | –
DDX21 | – | 0.14 | 0.14 | 0.55 | 1.00 | –
DHX9 | 0.08 | 0.28 | 0.18 | 3.27 | 3.53 | –
DIDO1 | 0.00 | 0.37 | 0.18 | 1.35 | 3.36 | –
DNA-binding protein A | – | – | – | – | – | Protein Ratios 3xMBT/D355N ([1]; SILAC ratio, 293T cells): 11.1; Protein Ratios DMSO/UNC0638 [2]: 1.4
DNA-dependent protein kinase catalytic subunit | – | – | – | – | – | Protein Ratios 3xMBT/D355N ([1]; SILAC ratio, 293T cells): 4.5; Protein Ratios DMSO/UNC0638 [2]: 1.5
DNM2 | – | 0.54 | 0.54 | 0.05 | 0.57 | –
DNMT1 | 0.46 | −0.19 | 0.13 | 1.70 | 2.02 | –

Further lines, with some results ahead:

Relative to UNC0638 UNC Heavy [2, 6] [log base 2] | Relative to UNC0638 UNC Light [2, 6] [log base 2] | Relative to UNC0638 Average [2] [log base 2] | Substance | 3xMBT/D355N UNC Heavy [1, 5] [log base 2] | 3xMBT/D355N UNC Light [1, 5] [log base 2] | further results
0.19 | 0.07 | 0.13 | CFL1 | 2.43 | 3.06 | –
0.24 | 0.06 | 0.15 | CKAP5 | 2.10 | 1.30 | –
0.24 | 0.65 | 0.44 | CLTC | 2.19 | 2.98 | Candidate G9a/GLP target [2]: ✓
0.30 | 0.73 | 0.52 | CSDA | 3.85 | 3.10 | Candidate G9a/GLP target [2]: ✓
0.36 | 0.01 | 0.18 | DDX39A | 2.00 | 1.53 | –
